Measurements published in patent US11827690B2, “ApoC-II mimetic peptides” (THE UNITED STATES OF AMERICA, as represented by the …, priority 2017, dated 2023).
Blank lines part the entries; values can stand above or below the sequence they belong to.

Tests used:
[1] = system: lipoproteins of human serum; test: incubation of human serum with exogenous apoC-II-a; type: binding; details: doses comparable to that achieved in vivo in mice
[2] = molecular target: T1, LPL inhibited by apoC-III (Bos taurus, UniProt P11151); test: LPL activation assay using apoC-III transgenic mice plasma as substrate; type: biochemical; design: host or cells: apoC-III comes with the plasma of apoC-III transgenic C57Bl/6 mice; details: all three transgenic mice plasma samples, FIG. 33
T1 sequence (P11151 29-478): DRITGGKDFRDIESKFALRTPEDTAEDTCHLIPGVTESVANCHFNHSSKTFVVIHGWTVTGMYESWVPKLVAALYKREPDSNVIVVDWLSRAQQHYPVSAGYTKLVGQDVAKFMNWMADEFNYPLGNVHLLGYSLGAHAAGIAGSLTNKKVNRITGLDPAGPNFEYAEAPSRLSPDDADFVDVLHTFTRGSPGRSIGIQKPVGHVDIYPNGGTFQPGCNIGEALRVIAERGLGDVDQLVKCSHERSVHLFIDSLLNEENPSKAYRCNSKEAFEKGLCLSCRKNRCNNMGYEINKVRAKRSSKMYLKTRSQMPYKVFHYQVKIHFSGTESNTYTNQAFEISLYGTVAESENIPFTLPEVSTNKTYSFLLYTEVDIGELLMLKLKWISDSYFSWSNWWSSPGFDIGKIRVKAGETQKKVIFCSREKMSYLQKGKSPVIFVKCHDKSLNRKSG
Description: (§1) LPL activity assay: 10 μL of Intralipid, human plasma sample, or mouse plasma sample was added in each well using repeater pipette. 10 μL (or 15 μL in the wells with no LPL control) of PBS and 10 μL of 1% BSA was added in each well using repeater pipette. 10 μL of peptides were added to corresponding wells in vertical triplicates (lowest concentration is on a left, highest is on the right). The plate was spun down at 1000 RPM for 10 seconds to mix and to remove the solutions from the wall of each well. The plate was put on ice and 5 μL of LPL was added using repeater pipette. The plate was spun down again at 1000 RPM for 10 seconds. The plate was covered and put back on ice for an incubation of 30 min. The plate was then moved to 37° C. and incubated for 1 hour.
(§2) Free fatty acids (NEFA) assay: 45 μL of 5 nmoL standard and 0 nmoL control (0.2% BSA) were added to corresponding wells. 225 μL of reagent A was added in each well using the reagent tray and 12-channel pipette. The plate was incubated for 10 min before 75 μL of reagent B was added to each well using the reagent tray and 12-channel pipette. The plate was not covered due to the high volume. The absorbance at 550 nm and 660 nm was measured.
LPL assay was performed using Intralipid, high TG human plasma (1:50 dilution), or apoC-III transgenic mouse plasma (1:50 dilution). […]

bovine LPL = molecular target: T2, bovine LPL (Bos taurus, UniProt P11151); test: in vitro LPL assay using apoC-II deficient patient sera as substrate; type: biochemical
T2 sequence (P11151 29-478): T1 sequence (P11151 29-478)
Summary of the method: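 Bovine LPL incubated with peptide and substrate (3 mg/dL TG Intralipid or 1:100-diluted apoC-II-deficient human serum) in PBS with BSA, 30 min on ice then 1 h at 37° C. Released free fatty acids quantified by colorimetric NEFA assay (absorbance 550 and 660 nm) against an oleic acid standard.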

[3] = molecular target: T1, LPL inhibited by apoC-III; test: LPL assay using human apoC-II deficient plasma as substrate with recombinant apoC-III; type: biochemical; details: 25 μM apoC-III, FIG. 50
Description: as §1, §2
LPL assay was performed using Intralipid, high TG human plasma (1:50 dilution), or apoC-III transgenic mouse plasma (1:50 dilution). When Intralipid was used as a substrate, 25 or 50 μM recombinant ApoC-III was added as an inhibitor. When the high TG human plasma was used as a substrate, 25 or 50 μM recombinant ApoC-III was added as an inhibitor with or without pre-incubation at 37° C. for 1 hour. An apoC-II mimetic peptide was added at various concentrations.

Sequence: DWLKAFYDKVAEKLKEAFPAMSTYTGIFTDQVLSVLKGEE (listed as Homo sapiens) [apoC-II-a, excluded from the claimed peptides]
binding to lipoproteins and apolipoprotein displacement [1]: binds to all lipoproteins, including HDL and causes the displacement of apoC-I and apoC-III | effect on inhibition by elevated expression of apoC-III [2]: overcame the inhibitory effect of elevated expression of apoC-III | effect on inhibition by elevated expression of apoC-III ([2]; listed as ApoC-II-a): overcomes the inhibitory effect of elevated expression of apoC-III

LPL activation / TG hydrolysis (bovine LPL; FIG. 52): activated LPL in vitro
Sequence: DYLKEVFEKLRDLYEKFTPAVSTYTGIFTDQVLSVLKGEE [Delta6PV]
LPL activation compared with full length apoC-II protein (bovine LPL; 10 pM to 10 μM, FIG. 51): activated LPL in vitro more efficiently than the full length apoC-II protein | effect on inhibition of LPL by apoC-III [3]: overcame the inhibitory effect of apoC-III and facilitated lipolysis
